Reference: paper PMC6215862, “AlNAC4 Transcription Factor From Halophyte Aeluropus lagopoides Mitigates Oxidative Stress by Maintaining ROS Homeostasis in Transgenic Tobacco”
Changes are numbered by the printed parent chain.

Legend:
[1] = molecular target: T1, AlNAC4 (Aeluropus lagopoides, UniProt A0A220T1T2 1-312); assay: EMSA; 80 ng probe, 300-2400 ng protein; binding increases with protein; 15 mM HEPES, 35 mM KCl, 1 mM EDTA pH 8.0, 1 mM DTT, 1 mM MgCl2, 6% glycerol, 4 ug glycogen, 25 ul, room temperature 20 min; 10% acrylamide 0.5x TBE gel, ethidium bromide stain; conditions: protein: recombinant, tags: 6xHis (pET-28a; not thrombin-cleaved), chain copies: 2
T1 sequence: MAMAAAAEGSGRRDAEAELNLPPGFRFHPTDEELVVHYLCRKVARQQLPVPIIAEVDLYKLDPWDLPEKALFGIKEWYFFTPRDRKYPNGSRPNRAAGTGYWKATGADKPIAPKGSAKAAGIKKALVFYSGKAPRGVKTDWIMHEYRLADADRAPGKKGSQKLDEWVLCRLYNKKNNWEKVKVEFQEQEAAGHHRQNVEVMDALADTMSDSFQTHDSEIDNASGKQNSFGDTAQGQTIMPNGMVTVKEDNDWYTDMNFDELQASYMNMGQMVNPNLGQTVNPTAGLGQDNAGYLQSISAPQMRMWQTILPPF

[2] = molecular target: T1, AlNAC4; assay: EMSA; data not shown; 15 mM HEPES, 35 mM KCl, 1 mM EDTA pH 8.0, 1 mM DTT, 1 mM MgCl2, 6% glycerol, 4 ug glycogen, 25 ul, room temperature 20 min; 10% acrylamide 0.5x TBE gel, ethidium bromide stain; conditions: protein: recombinant; tags: 6xHis (pET-28a; not thrombin-cleaved); chain copies: 2; blunt
[3] = molecular target: T1, AlNAC4; assay: EMSA; 15 mM HEPES, 35 mM KCl, 1 mM EDTA pH 8.0, 1 mM DTT, 1 mM MgCl2, 6% glycerol, 4 ug glycogen, 25 ul, room temperature 20 min; 10% acrylamide 0.5x TBE gel, ethidium bromide stain; conditions: protein: recombinant; tags: 6xHis (pET-28a; not thrombin-cleaved); chain copies: 2; blunt

B1: NACBS (single NACRS with flanks, erd1 promoter) (dsDNA)
DNA 1: AGCTTGTGCAACTTGAGCTCTTCTTCTGTAACACGCATGTGTTGCGTTTGGTTTTTAATTTATTTGCCA
DNA 2: TGGCAAATAAATTAAAAACCAAACGCAACACATGCGTGTTACAGAAGAAGAGCTCAAGTTGCACAAGCT
B1: binds ([1]; blunt).

B2: mutated NACBS (CATGTG to AAAAAA, AACA to TTAA) (dsDNA)
DNA 1: B1 DNA 1 with A30T, A31T, C32A, C36A, T38A, G39A, T40A, G41A
DNA 2: B1 DNA 2 with C29T, A30T, C31T, A32T, G34T, G38T, T39A, T40A
B2: no binding [2].

B3: NACBST (tandem NACRS, erd1 promoter) (dsDNA)
DNA 1: GGCCGCACACGCATGTGACACGCATGTGACACGCATGTGACACGCATGTGA
DNA 2: CTAGTCACATGCGTGTCACATGCGTGTCACATGCGTGTCACATGCGTGTGC
B3: binds ([1]; 5' overhangs 4 nt on both strands (GGCC, CTAG)).

B4: pBSK+ MCS (dsDNA)
DNA 1: GGGGATCCACTAGTTCTAGAGCGGCCGCCA
DNA 2: TGGCGGCCGCTCTAGAACTAGTGGATCCCC
B4: no binding [3].
